Assay results as given in PMC11964946.

Target: Vicia altissima seed lectin (VICALTA) (Vicia altissima)
Assay: native gel or EMSA; native PAGE on Mini-PROTEAN TGX 4%-20% precast gels (single band at 87 kDa), compared with SDS-PAGE (single band at 38 kDa); purified seed lectin

- stoichiometry N: 2
Substance: Vicia altissima seed lectin (VICALTA) (natural protein)
